Measured values as given in paper PMC2387164, “A GATA4/WT1 cooperation regulates transcription of genes required for mammalian sex determination and differentiation”.
Values belong to the molecule of their own block, whether it stands above or below them.

Columns and labels:
[1] = biological target: WT1(+KTS) overexpressed in HeLa cells (mouse) (UniProt P22561)
[2] = biological target: T1, GATA4 (UniProt Q08369 1-441); test: competition; competitor of labeled GATA site 1; EMSA conditions as described previously (ref. 48); buffer, salt, pH and temperature not given; conditions: protein: ivt; 5' overhang 4 nt (GATC) both ends
T1 sequence (Q08369 whole entry): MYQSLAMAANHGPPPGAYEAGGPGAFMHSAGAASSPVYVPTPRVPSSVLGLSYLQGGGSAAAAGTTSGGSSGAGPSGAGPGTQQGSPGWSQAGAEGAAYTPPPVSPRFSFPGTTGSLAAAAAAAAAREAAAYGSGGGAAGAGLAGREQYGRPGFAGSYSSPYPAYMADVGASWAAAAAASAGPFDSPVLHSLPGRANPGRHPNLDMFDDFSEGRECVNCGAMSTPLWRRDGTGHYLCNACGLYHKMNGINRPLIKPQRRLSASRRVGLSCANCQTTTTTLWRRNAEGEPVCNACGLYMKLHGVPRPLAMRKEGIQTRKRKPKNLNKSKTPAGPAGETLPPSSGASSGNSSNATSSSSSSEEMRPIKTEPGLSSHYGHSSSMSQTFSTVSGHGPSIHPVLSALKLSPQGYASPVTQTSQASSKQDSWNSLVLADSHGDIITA

[3] = biological target: T1, GATA4; test: EMSA; EMSA conditions as described previously (ref. 48); buffer, salt, pH and temperature not given; conditions: protein: ivt; label: 32P (as probe); 5' overhang 4 nt (GATC) both ends
[4] = biological target: WT1(-KTS) (mouse, UniProt P22561-4 1-446); test: EMSA; blocked by 10-fold excess self competitor; EMSA conditions as described previously (ref. 48); buffer, salt, pH and temperature not given; conditions: protein: ivt; label: 32P (as probe); 5' overhang 4 nt (GGAT on strand 1, GATC on strand 2)
Sequence of WT1(-KTS) (P22561 other isoform, or with tags, fused parts or gaps): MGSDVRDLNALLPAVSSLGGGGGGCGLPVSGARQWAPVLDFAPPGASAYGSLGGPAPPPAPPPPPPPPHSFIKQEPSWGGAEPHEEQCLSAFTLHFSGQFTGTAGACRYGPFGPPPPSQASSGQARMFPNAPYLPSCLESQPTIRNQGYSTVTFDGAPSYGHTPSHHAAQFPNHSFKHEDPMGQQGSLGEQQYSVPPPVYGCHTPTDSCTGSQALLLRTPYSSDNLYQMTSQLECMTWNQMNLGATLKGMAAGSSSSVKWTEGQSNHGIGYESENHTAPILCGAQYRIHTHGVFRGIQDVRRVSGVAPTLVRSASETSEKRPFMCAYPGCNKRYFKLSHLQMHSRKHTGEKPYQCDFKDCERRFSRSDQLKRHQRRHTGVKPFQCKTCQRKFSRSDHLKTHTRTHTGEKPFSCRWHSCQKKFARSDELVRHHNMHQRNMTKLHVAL

[5] = biological target: WT1(+KTS) (mouse, UniProt P22561 1-449); test: as above; conditions: protein: ivt; label: 32P (as probe); 5' overhang 4 nt (GGAT on strand 1, GATC on strand 2)
Sequence of WT1(+KTS) (P22561 whole entry): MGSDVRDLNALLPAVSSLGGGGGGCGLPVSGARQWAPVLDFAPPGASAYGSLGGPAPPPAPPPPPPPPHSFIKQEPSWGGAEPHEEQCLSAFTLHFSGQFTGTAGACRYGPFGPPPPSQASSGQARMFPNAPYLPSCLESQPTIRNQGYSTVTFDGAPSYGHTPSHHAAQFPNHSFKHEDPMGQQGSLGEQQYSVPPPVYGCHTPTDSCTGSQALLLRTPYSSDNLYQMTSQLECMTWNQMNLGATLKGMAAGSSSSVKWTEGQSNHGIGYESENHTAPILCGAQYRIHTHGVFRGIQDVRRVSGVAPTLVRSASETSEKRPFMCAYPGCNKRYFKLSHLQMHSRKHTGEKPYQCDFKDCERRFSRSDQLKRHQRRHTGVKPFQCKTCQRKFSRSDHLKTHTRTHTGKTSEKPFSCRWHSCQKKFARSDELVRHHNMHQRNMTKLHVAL

Sequence of WT1(+KTS) overexpressed in HeLa cells (mouse) (P22561 whole entry): as above

luciferase reporter, -1090 bp mouse Sry promoter, co-transfected HeLa cells, fold activation over control [1]: 30 fold
luciferase reporter, -1400 bp pig SRY promoter, co-transfected HeLa cells, fold activation over control [1]: 50 fold
Molecule: GATA4 overexpressed in HeLa cells (from UniProt P46152 1-440) (natural protein)

B1: pig SRY GATA site 2 (dsDNA)
DNA 1: GATCCATTGGGTTATCTTGAATCA
DNA 2: GATCTGATTCATGATAACCCAATG
binding result [2]: binds

B2: pig SRY GATA site 1 (dsDNA)
DNA 1: GATCCGCCTTATTATCATAATAAA
DNA 2: GATCTTTATTATGATAATAAGGCG
binding result [3]: binds

B3: human AMH distal WT1 element (dsDNA)
DNA 1: GGATCACTGGGGAGGGAGATAGGA
DNA 2: GATCTCCTATCTCCCTCCCCAGTG
binding result [4]: binds
binding result [5]: binds

B4: pig SRY GATA site 4 (dsDNA)
DNA 1: GATCCCCAAGGTTATCTGTTTTTA
DNA 2: GATCTAAAAACAGATAACCTTGGG
binding result [2]: binds

B5: pig SRY GATA site 3 (dsDNA)
DNA 1: GATCCACATACTGATAATCATCAA
DNA 2: GATCTTGATGATTATCAGTATGTG
binding result [2]: binds
